Square brackets hold non-standard residues; d marks the D form. Peptide text beside a SMILES is read from it. * marks the point of attachment. Doxorubicin(3'-N) = COc1cccc2c1C(=O)c1c(O)c3c(c(O)c1C2=O)C[C@@](O)(C(=O)CO)C[C@@H]3O[C@H]1C[C@H](N*)[C@H](O)[C@H](C)O1; Nle = CCCC[C@H](N)C(=O)O
Settings: mouse, in vivo

## CCCC[C@H](NC(=O)[C@H](CO)NC(=O)[C@H](CCCNC(=N)N)NC(=O)CNC(=O)[C@H](CO)NC(=O)CNC(C)=O)C(=O)N[C@H]1C[C@H](O[C@H]2C[C@](O)(C(=O)CO)Cc3c(O)c4c(c(O)c32)C(=O)c2c(OC)cccc2C4=O)O[C@@H](C)[C@H]1O [Ac-Gly-Ser-Gly-Arg-Ser-nLeu-Dox] (Ac-GSGRS[Nle]-{Doxorubicin(3'-N)})
  levels of dox and nor-leu dox in the plasma compared with the tumor: lower levels
  parent conjugate in the tumor: does not get into the tumor
  toxins (norleu dox and dox) concentrations in the tumor: μM concentrations
